According to patent US20090311248A1:

Target: E1s (HCV E1 envelope protein, aa 192-326 of the HCV polyprotein) (Hepatitis C virus (HCV))
Assay: coating ELISA, E1s at 0.5 ug/ml, hybridoma supernatant

4G2 (antibody)
O.D. value (450-595 nm): > 2 O.D.
